{"source": "paper PMC4513857", "about": "“PRC2 regulates RNA polymerase III transcribed non-translated RNA gene transcription through EZH2 and SUZ12 interaction with TFIIIC complex” (Nucleic Acids Research, 2015)", "target": "T1, GST-EZH2 fragment A, N-terminal region (Domain I + Domain II), aa 1-522 (UniProt Q15910 1-522)", "T1 construct": "Cloned in pGEX-4T-1; also called fragment A of EZH2; source: E. coli BL21, purified (Glutathione Sepharose 4B)", "T1 sequence (looked up)": "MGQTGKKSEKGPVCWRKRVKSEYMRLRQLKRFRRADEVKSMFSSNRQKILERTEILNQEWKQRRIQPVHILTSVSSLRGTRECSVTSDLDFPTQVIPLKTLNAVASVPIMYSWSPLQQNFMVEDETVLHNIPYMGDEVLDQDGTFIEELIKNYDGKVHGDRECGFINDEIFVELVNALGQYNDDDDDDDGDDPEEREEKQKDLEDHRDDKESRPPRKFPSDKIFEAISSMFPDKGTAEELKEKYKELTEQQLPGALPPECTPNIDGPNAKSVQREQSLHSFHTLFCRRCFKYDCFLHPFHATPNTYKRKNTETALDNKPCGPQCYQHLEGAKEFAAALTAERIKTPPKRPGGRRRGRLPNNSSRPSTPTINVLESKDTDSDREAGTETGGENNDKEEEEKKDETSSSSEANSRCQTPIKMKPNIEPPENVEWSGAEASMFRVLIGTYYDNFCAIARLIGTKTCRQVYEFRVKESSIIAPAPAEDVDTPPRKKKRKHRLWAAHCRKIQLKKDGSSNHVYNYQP", "experiment": "pull-down; in vitro pull-down with purified proteins: GST-EZH2 (aa 1-522) and MBP-TFIIIC102 fragment C (aa 524-886)", "settings": "both partners purified", "data": [{"binder": "MBP-TFIIIC102 fragment C (aa 524-886) (domain or fragment, UniProt Q9Y5Q9 524-886, looked up, source: purified) QDANAAQQELKLLLHRSTLLFSQGKMYGYVDTLLTMLAMLLKVAMNRAQVCLISSSKSGERHLYLIKVSRDKISDSNDQESANCDAKAIFAVLTSVLTKDDWWNLLLKAIYSLCDLSRFQEAELLVDSSLEYYSFYDDRQKRKELEYFGLSAAILDKNFRKAYNYIRIMVMENVNKPQLWNIFNQVTMHSQDVRHHRFCLRLMLKNPENHALCVLNGHNAFVSGSFKHALGQYVQAFRTHPDEPLYSFCIGLTFIHMASQKYVLRRHALIVQGFSFLNRYLSLRGPCQESFYNLGRGLHQLGLIHLAIHYYQKALELPPLVVEGIELDQLDLRRDIAYNLSLIYQSSGNTGMAQTLLYTYCSI", "values": [{"measurement": "binding result", "value": "binds"}]}]}
